From patent US20230212549A1 (3B PHARMACEUTICALS, published 2023)
Where “and” joins values, the source holds several entries; their conditions need not be identical. Identical values can stand only once. Numbered stars: 1 amine (or outer) side, 2 acyl side, 3 side chain; on linkers, the order of the positions; unused ones are H or OH. Bridge positions count the residues as written; N and C are the ends. Square brackets hold non-standard residues; d marks the D form. Primed or numbered codes have the meaning given here. * marks the point of attachment. tMeBn(LuDOTA-AET) = 1,3,5-trimethylbenzylidene (from 1,3,5-tris(bromomethyl)benzene) bridge with two thioethers to the Cys, its third CH2 carries AET (2-aminoethanethiol, attached through S), whose amine is acylated by DOTA complexing lutet, O=C([O-])CN1CCN(CC(=O)[O-])CCN(CC(=O)NCCSCc2cc(C[*:1])cc(C[*:2])c2)CCN(CC(=O)[O-])CC1.[Lu+3]; Ttds″ = 1,13-diamino-4,7,10-trioxatridecan-succinamic acid spacer, O=C(CCC(=O)[*:2])NCCCOCCOCCOCCCN[*:1]; TBMB(SCH2CH2NH-DOTA) = O=C(O)CN1CCN(CC(=O)O)CCN(CC(=O)NCCSCc2cc(C[*:1])cc(C[*:2])c2)CCN(CC(=O)O)CC1; Ttds = 1,13-diamino-4,7,10-trioxatridecan-succinamic acid, O=C(CCC(=O)[*:2])NCCCOCCOCCOCCCN[*:1]; 3MeBn = 3-Methylbenzylidene (m-xylylene thioether bridge from α,α′-dibromo-m-xylene); N4Ac = 6-Carboxy-1,4,8,11-tetraazaundecane, an N4-chelator, NCCNCC(CNCCN)C(=O)*; Oic = O=C(O)[C@@H]1C[C@@H]2CCCC[C@@H]2N1; mXylylene = c1cc(C[*:1])cc(C[*:2])c1; AF488 = Alexa Fluor 488 label; Nle = CCCC[C@H](N)C(=O)O; Hexanoyl = CCCCCC(=O)*; AEEA = NCCOCCOCC(=O)O; Ahx = NCCCCCC(=O)O; GABA = NCCCC(=O)O; Sar = CNCC(=O)O

Assays:
[1] = target: T1, human fibroblast activation protein (FAP) on WI-38 fibroblasts (human, UniProt Q12884 1-760); assay: competitive FACS, WI-38 cells, Cy5-labeled peptide as competitor
T1 construct: FAP-expressing human WI-38 fibroblasts (ECACC)

[2] = target: Recombinant human FAP (R&D systems, #3715-SE) (human, UniProt Q12884 26-760); assay: cell-based or functional assay
[3] = target: Recombinant human FAP (R&D systems, #3715-SE) (human, UniProt Q12884 26-760); assay: cell-based or functional assay; remark: listed apart in the source
[4] = target: T2, fibroblast activation protein (FAP) on FAP-expressing human WI-38 fibroblasts (human, UniProt Q12884 1-760); assay: competitive FACS, WI-38 cells, vs Cy5 tracer m3; C = pIC50 6.1-7.0
T2 construct: also called human FAP

## N4Ac-[AEEA][Nle]CPPTEFC-OH (linker 3-9 via 3MeBn, also called 3BP-4228) [N4Ac-O2Oc-Nle-[Cys-(3MeBn)-Pro-Pro-Thr-Glu-Phe-Cys]-OH]
[1]
  pIC50 Category (FACS): ≤ 6 pIC50

## Hexanoyl-CPPTQFCD-NH2 (linker 1-7 via tMeBn(H-O2Oc-AET), also called 3BP-4003) [Hex-[Cys-(tMeBn(H-O2Oc-AET))-Pro-Pro-Thr-Gln-Phe-Cys]-Asp-NH2]
[2]
  pIC50 Category (Activity): > 8 pIC50
[1]
  pIC50 Category (FACS): > 8 pIC50

B1: Hex-[Cys(tMeBn(DOTA-PP))-Nmg-Pro-Thr-Gln-Phe-Cys]-OH (peptide)
peptide: Hexanoyl-C[Sar]PTQFC-OH
modifications: bridge 1-7; not fully specified (residue 1, bridges); printed as Hex-[Cys(tMeBn(DOTA-PP))-Nmg-Pro-Thr-Gln-Phe-Cys]-OH
notes: also called 3BP-3771
[2]
  pIC50 Category (Activity): > 8 pIC50
[1]
  pIC50 Category (FACS): > 8 pIC50

B2: Hex-[Cys(tMeBn(LuDOTA-AET))-Pro-Pro-Thr-Gln-Phe-Cys]-Asp-Gab-Arg-Ttds-Lys(AF488)-NH2 (peptide)
peptide: Hexanoyl-CPPTQFCD[GABA]R[Ttds″]K(AF488)-NH2
modifications: linker 1-7 via tMeBn(LuDOTA-AET); not fully specified (residue 1); printed as Hex-[Cys(tMeBn(LuDOTA-AET))-Pro-Pro-Thr-Gln-Phe-Cys]-Asp-Gab-Arg-Ttds-Lys(AF488)-NH2; also: DOTA complexing lutetium
notes: also called 3BP-4372
[2]
  pIC50 Category (Activity): > 8 pIC50
[1]
  pIC50 Category (FACS): > 8 pIC50

B3: H-Ahx-Ttds-Nle-[Cys-(3MeBn)-Pro-Pro-Thr-Gln-Phe-Cys]-Asp-NH2 (peptide)
peptide: H-[Ahx][Ttds][Nle]CPPTQFCD-NH2
modifications: linker 4-10 via mXylylene
SMILES: CCCC[C@H](NC(=O)CCC(=O)NCCCOCCOCCOCCCNC(=O)CCCCCN)C(=O)N[C@H]1CSCc2cccc(c2)CSC[C@@H](C(=O)N[C@@H](CC(=O)O)C(N)=O)NC(=O)[C@H](Cc2ccccc2)NC(=O)[C@H](CCC(N)=O)NC(=O)[C@H]([C@@H](C)O)NC(=O)[C@@H]2CCCN2C(=O)[C@@H]2CCCN2C1=O
notes: also called 3BP-3980
[2]
  pIC50 Category (Activity): > 8 pIC50
[1]
  pIC50 Category (FACS): > 8 pIC50

B4: Ac-Met-[Cys(3MeBn)-Oic-Pro-Thr-Glu-Phe-Cys]-Asp-His-Phe-Arg-Asp-NH2 (peptide)
peptide: Ac-MC[Oic]PTEFCDHFRD-NH2
modifications: linker 2-8 via mXylylene
SMILES: CSCC[C@H](NC(C)=O)C(=O)N[C@H]1CSCc2cccc(c2)CSC[C@@H](C(=O)N[C@@H](CC(=O)O)C(=O)N[C@@H](Cc2c[nH]cn2)C(=O)N[C@@H](Cc2ccccc2)C(=O)N[C@@H](CCCNC(=N)N)C(=O)N[C@@H](CC(=O)O)C(N)=O)NC(=O)[C@H](Cc2ccccc2)NC(=O)[C@H](CCC(=O)O)NC(=O)[C@H]([C@@H](C)O)NC(=O)[C@@H]2CCCN2C(=O)[C@@H]2C[C@@H]3CCCC[C@@H]3N2C1=O
notes: also called 3BP-3216
[3]
  pIC50 Category (Activity): 6.1 pIC50 and 7 pIC50
[4]
  pIC50 Category (FACS): 6.1 pIC50 and 7 pIC50

## Hexanoyl-CPPTQFCD-NH2 (linker 1-7 via tMeBn(H-O2Oc-PP), also called 3BP-3967) [Hex-[Cys-(tMeBn(H-O2Oc-PP))-Pro-Pro-Thr-Gln-Phe-Cys]-Asp-NH2]
[2]
  pIC50 Category (Activity): > 8 pIC50
[1]
  pIC50 Category (FACS): > 8 pIC50

B5: Ac-Met-[Cys(3MeBn)-Pro-Pro-Thr-Glu-Phe-Cys]-Asp-His-Phe-NH2 (peptide)
peptide: Ac-MCPPTEFCDHF-NH2
modifications: linker 2-8 via mXylylene
SMILES: CSCC[C@H](NC(C)=O)C(=O)N[C@H]1CSCc2cccc(c2)CSC[C@@H](C(=O)N[C@@H](CC(=O)O)C(=O)N[C@@H](Cc2c[nH]cn2)C(=O)N[C@@H](Cc2ccccc2)C(N)=O)NC(=O)[C@H](Cc2ccccc2)NC(=O)[C@H](CCC(=O)O)NC(=O)[C@H]([C@@H](C)O)NC(=O)[C@@H]2CCCN2C(=O)[C@@H]2CCCN2C1=O
notes: also called 3BP-3199
[3]
  pIC50 Category (Activity): 7.1 pIC50 and 8 pIC50
[4]
  pIC50 Category (FACS): 6.1 pIC50 and 7 pIC50

B6: Hex-[Cys(tMeBn(DOTA-AET))-Nmg-Pro-Thr-Gln-Phe-Cys]-NH2 (peptide)
peptide: Hexanoyl-C[Sar]PTQFC-NH2
modifications: linker 1-7 via TBMB(SCH2CH2NH-DOTA)
SMILES: CCCCCC(=O)N[C@H]1CSCc2cc(CSCCNC(=O)CN3CCN(CC(=O)O)CCN(CC(=O)O)CCN(CC(=O)O)CC3)cc(c2)CSC[C@@H](C(N)=O)NC(=O)[C@H](Cc2ccccc2)NC(=O)[C@H](CCC(N)=O)NC(=O)[C@H]([C@@H](C)O)NC(=O)[C@@H]2CCCN2C(=O)CN(C)C1=O
notes: also called 3BP-3744
[2]
  pIC50 Category (Activity): > 8 pIC50
[1]
  pIC50 Category (FACS): > 8 pIC50
